# Reference: patent publication US20090246142A1, “Triggered Self-Assembly of Nanoparticles In Vivo” (MASSACHUSETTS INSTITUTE OF TECHNOLOGY, priority 2006, published 2009)
# Biological target: TAMRA-C(Ahx)QpYDHPNI-CONH2 (CRK SH2-binding phosphopeptide) on nanoparticles (pY-peptide TSACs)
# Assay: DLS of nanoparticle assembly, 12 nM TSACs, both partners polyvalent on particles
substance,measurement,value
"Crk SH2 domain with an N-terminal cysteine (cys-SH2), conjugated to iron oxide nanoparticles (SH2 TSACs) (from UniProt P46108 13-118)",hydrodynamic radius increase,10 fold
